± gives the standard deviation of the averaged measurements.
B1: library; a variant is named by its letters at N, in order (parent)
chain: GCUGUCACCGGUGUAUUACCCUAGUGGUCGACCGGUCUGAUGAGUCUNNNNNNAGACGAAACAGC

How the values were obtained:
hypoxanthine [1] = variants of: B1; test: normalized RNA/DNA level with ligand (relative to sTRSVctl = 100) (log10 (% of sTRSVctl)); ligand: hypoxanthine (xanthine aptamer); higher = less ribozyme self-cleavage, higher mRNA level; details: ligand concentration (+) RNA-Seq: 5 mM, HEK293T, reporter: mCherry (pCS4076), ligand present: yes
Outline: (§1)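 Library plasmids carrying ribozyme switches linked to mCherry, or to eGFP in some ligand experiments, were transfected into HEK293T at 4 µg per 6-well well, with any ligand added 1 h earlier. Seventy-two hours on, total RNA was extracted with EDTA and reverse-transcribed, amplified, barcoded and sequenced. RNA level was RNA over DNA reads normalized to a spiked-in non-cleaving sequence or to the top sequences, then scaled and log-transformed. The top set was 25 sequences, the transform was ×100 and log10, and sequences needed ≥100 DNA reads.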

hypoxanthine [2] = variants of: B1; test: normalized RNA/DNA level without ligand (relative to sTRSVctl = 100) (log10 (% of sTRSVctl)); ligand: hypoxanthine (xanthine aptamer); higher = less ribozyme self-cleavage, higher mRNA level; details: HEK293T, reporter: mCherry (pCS4076), ligand present: no
Outline: as §1

Row | Variant | normalized RNA/DNA level with ligand (log10) (hypoxanthine [1]) | normalized RNA/DNA level without ligand (log10) (hypoxanthine [2])
1 | UUCAAC | 1.94 ± 0.044 | 1.873 ± 0.011
2 | AGUUGA | 1.915 ± 0.0047 | 1.63 ± 0.032
3 | AGUUGU | 1.93 ± 0.043 | 1.63 ± 0.076
4 | UUACUU | 1.93 ± 0.025 | 1.93 ± 0.043
5 | UUACUC | 1.995 ± 0.0094 | 2.02 ± 0.038
6 | UUACUA | 1.93 ± 0.039 | 1.887 ± 0.011
7 | AUCAAA | 1.921 ± 0.011 | 1.79 ± 0.034
8 | AUCAAC | 1.99 ± 0.031 | 1.84 ± 0.028
9 | AUCAAU | 1.89 ± 0.038 | 1.78 ± 0.058
10 | AUAAAA | 1.88 ± 0.031 | 1.8 ± 0.04
11 | UUCAUG | 1.95 ± 0.029 | 1.78 ± 0.056
12 | UUCAUA | 1.88 ± 0.019 | 1.8411 ± 0.0016
13 | UUCAUU | 1.95 ± 0.025 | 1.91 ± 0.071
14 | GUAGUC | 1.976 ± 0.012 | 1.81 ± 0.05
15 | GUAGUU | 1.96 ± 0.041 | 1.87 ± 0.046
16 | UUAUUU | 1.91 ± 0.033 | 1.91 ± 0.031
17 | UUAUUG | 1.897 ± 0.017 | 1.714 ± 0.0023
18 | UUAUUC | 1.96 ± 0.045 | 1.936 ± 0.016
19 | CUCCGC | 1.967 ± 0.019 | 1.95 ± 0.026
20 | CUCCGA | 1.96 ± 0.13 | 1.884 ± 0.0062
21 | UUAAGC | 1.94 ± 0.023 | 1.837 ± 0.0055
22 | UUAAGU | 1.936 ± 0.0026 | 1.847 ± 0.0087
23 | AUAGAG | 1.81 ± 0.037 | 1.31 ± 0.019

Row | Variant | normalized RNA/DNA level with ligand (log10) (hypoxanthine [1]) | normalized RNA/DNA level without ligand (log10) (hypoxanthine [2])
24 | AUAGAU | 1.91 ± 0.063 | 1.7097 ± 0.00076
25 | CUCAGA | 1.965 ± 0.012 | 1.8539 ± 0.00065
26 | CUCAGC | 2 ± 0.068 | 1.96 ± 0.01
27 | CUCAGU | 1.97 ± 0.061 | 1.89 ± 0.079
28 | CUCAGG | 1.95 ± 0.041 | 1.88 ± 0.026
29 | UUAAUG | 1.886 ± 0.0055 | 1.737 ± 0.0081
30 | UUAAUU | 1.94 ± 0.041 | 1.84 ± 0.041
31 | UUAAUC | 1.95 ± 0.017 | 1.96 ± 0.058
32 | AUAUUU | 1.903 ± 0.0024 | 1.89 ± 0.057
33 | AUAUUA | 1.868 ± 0.0053 | 1.82 ± 0.028
34 | AUAGGC | 1.91 ± 0.025 | 1.776 ± 0.0031
35 | AUAGGU | 1.908 ± 0.016 | 1.587 ± 0.015
36 | GUAUGC | 1.868 ± 0.0093 | 1.46 ± 0.08
37 | AUAAUC | 1.939 ± 0.0048 | 1.884 ± 0.0055
38 | CUACAC | 1.91 ± 0.026 | 1.77 ± 0.029
39 | CUACAG | 1.91 ± 0.028 | 1.73 ± 0.039
40 | CUACAU | 1.95 ± 0.075 | 1.7979 ± 0.00079
41 | GGUUUC | 1.946 ± 0.011 | 1.916 ± 0.0058
42 | GUACGC | 1.95 ± 0.033 | 1.84 ± 0.062
43 | GUACGA | 1.91 ± 0.04 | 1.686 ± 0.0047
44 | GUAUCG | 1.9 ± 0.042 | 1.57 ± 0.017
45 | GUAUCC | 1.96 ± 0.025 | 1.86 ± 0.043
46 | GUAUCA | 1.96 ± 0.049 | 1.88 ± 0.02

Row | Variant | normalized RNA/DNA level with ligand (log10) (hypoxanthine [1]) | normalized RNA/DNA level without ligand (log10) (hypoxanthine [2])
47 | GUACUU | 1.9422 ± 0.0012 | 1.889 ± 0.006
48 | GUACUG | 1.883 ± 0.0029 | 1.53 ± 0.056
49 | GUACUA | 1.937 ± 0.014 | 1.86 ± 0.037
50 | GUACUC | 1.93 ± 0.053 | 1.92 ± 0.032
51 | CUAGCG | 1.91 ± 0.068 | 1.824 ± 0.0032
52 | CUAGCU | 1.987 ± 0.0096 | 1.93 ± 0.042
53 | CUAGCC | 1.95 ± 0.037 | 1.86 ± 0.064
54 | UUAGCA | 1.95 ± 0.025 | 1.85 ± 0.025
55 | UUAGCU | 1.97 ± 0.021 | 1.89 ± 0.023
56 | UUAGCC | 1.95 ± 0.065 | 1.88 ± 0.025
57 | UUAGCG | 1.906 ± 0.018 | 1.8 ± 0.038
58 | UGUUUA | 1.942 ± 0.0063 | 1.88 ± 0.035
59 | UGUUUU | 1.97 ± 0.069 | 1.888 ± 0.011
60 | UGUUUC | 1.98 ± 0.071 | 2.02 ± 0.047
61 | GUAUAA | 1.87 ± 0.052 | 1.78 ± 0.02
62 | AUACCU | 1.985 ± 0.013 | 1.9 ± 0.039
63 | AUACCA | 1.91 ± 0.02 | 1.88 ± 0.031
64 | CUAAGG | 1.91 ± 0.032 | 1.75 ± 0.046
65 | CUAAGA | 1.947 ± 0.013 | 1.838 ± 0.011
66 | GUCACG | 1.9 ± 0.025 | 1.54 ± 0.055
67 | GUCACU | 1.977 ± 0.014 | 1.91 ± 0.041
68 | GUCACC | 1.92 ± 0.059 | 1.9 ± 0.079
69 | GUCACA | 1.917 ± 0.002 | 1.81 ± 0.022

Row | Variant | normalized RNA/DNA level with ligand (log10) (hypoxanthine [1]) | normalized RNA/DNA level without ligand (log10) (hypoxanthine [2])
70 | AUAUCU | 1.89 ± 0.026 | 1.844 ± 0.016
71 | AUAUCC | 1.938 ± 0.015 | 1.876 ± 0.018
72 | AUAUCA | 1.936 ± 0.0032 | 1.81 ± 0.021
73 | CUCAAU | 1.92 ± 0.036 | 1.792 ± 0.0044
74 | CUCAAA | 1.919 ± 0.0021 | 1.785 ± 0.013
75 | CUCAAG | 1.88 ± 0.0045 | 1.742 ± 0.0067
76 | CUCAAC | 1.98 ± 0.052 | 1.926 ± 0.0052
77 | AUAUGC | 1.94 ± 0.0047 | 1.76 ± 0.018
78 | AUAACC | 1.943 ± 0.0094 | 1.8816 ± 0.0015
79 | AUAACG | 1.87 ± 0.062 | 1.43 ± 0.11
80 | AUAACU | 1.93 ± 0.034 | 1.88 ± 0.027
81 | GUCCGA | 1.9508 ± 0.00054 | 1.732 ± 0.013
82 | GUCCGC | 1.9 ± 0.055 | 1.85 ± 0.024
83 | AUCCAC | 1.95 ± 0.056 | 1.8068 ± 0.00014
84 | GUACAC | 1.919 ± 0.0031 | 1.79 ± 0.041
85 | GUACAU | 1.9 ± 0.034 | 1.77 ± 0.056
86 | UUCACG | 1.93 ± 0.036 | 1.8 ± 0.031
87 | UUCACU | 1.956 ± 0.0023 | 1.76 ± 0.039
88 | UUCACC | 1.984 ± 0.015 | 2 ± 0.05
89 | AUCAUG | 1.89 ± 0.021 | 1.63 ± 0.062
90 | GGUUGU | 1.94 ± 0.065 | 1.76 ± 0.035
91 | UUCCGA | 1.97 ± 0.029 | 1.94 ± 0.03
92 | UUCCGC | 2.011 ± 0.003 | 1.89 ± 0.035

Row | Variant | normalized RNA/DNA level with ligand (log10) (hypoxanthine [1]) | normalized RNA/DNA level without ligand (log10) (hypoxanthine [2])
93 | UUAUGU | 1.92 ± 0.021 | 1.794 ± 0.01
94 | UUAUGC | 1.94 ± 0.039 | 1.874 ± 0.0042
95 | CUAAAU | 1.883 ± 0.01 | 1.82 ± 0.03
96 | CUAAAG | 1.92 ± 0.051 | 1.67 ± 0.013
97 | CUAAAA | 1.88 ± 0.032 | 1.813 ± 0.0042
98 | UUCCCA | 1.92 ± 0.032 | 1.91 ± 0.037
99 | UUCCCC | 1.93 ± 0.043 | 1.8846 ± 0.0013
100 | UUCCCU | 2 ± 0.052 | 1.935 ± 0.0058
101 | UUAGAG | 1.832 ± 0.0063 | 1.556 ± 0.011
102 | UUAGAC | 1.9 ± 0.083 | 1.82 ± 0.022
103 | UUAGAU | 1.9278 ± 0.00084 | 1.766 ± 0.0096
104 | UUACGG | 1.94 ± 0.04 | 1.85 ± 0.029
105 | UUACGA | 1.923 ± 0.01 | 1.89 ± 0.022
106 | UUACGC | 1.94 ± 0.029 | 1.81 ± 0.054
107 | AUCCCU | 1.97 ± 0.042 | 1.9 ± 0.022
108 | AUCCCA | 1.92 ± 0.03 | 1.88 ± 0.02
109 | AUCCCC | 1.93 ± 0.025 | 1.87 ± 0.036
110 | UUACCU | 1.99 ± 0.053 | 1.88 ± 0.029
111 | UUACCA | 1.95 ± 0.038 | 1.871 ± 0.008
112 | UUACCC | 1.973 ± 0.0071 | 1.93 ± 0.064
113 | CUAGAG | 1.88 ± 0.018 | 1.64 ± 0.023
114 | CUAGUU | 1.919 ± 0.0027 | 1.9151 ± 0.00062
115 | CUAGUA | 1.918 ± 0.0099 | 1.8 ± 0.049

— the supplement of paper PMC6757056
